# Assay results from patent US20240408249A1 (NATIONAL RESEARCH COUNCIL OF CANADA, published 2024).
# B1: Conjugate A ([177Lu]-Compound C-anti-EGFRvIII conjugate prepared from EGFRvIII antibody hH2-hL3) (antibody, V domains shown)
# VH: QVQLQESGPGLVKPSQTLSLTCTVSGYSITSDYAWNWIRQPPGKGLEWIGYIGYNGRTSYNPSLKSRVTISRDTSKNQFSLKLSSVTAADTAVYYCARLGRGFAYWGQGTLVTVSS
# VL: DIQMTQSPSSLSASVGDRVTITCHASQGINSNIGWLQQKPGKAFKGLIYHGTNLEDGVPSRFSGSGSGTDYTLTISSLQPEDFATYYCVQYAQFPYTFGQGTKLEIKR
# modifications: [177Lu]-Compound C (DOTA chelate with PEG3 linker) conjugated to the antibody; attachment residues not stated; typical chelate to antibody ratios (CARs) of 3-4
# notes: Radioimmunoconjugate as tested; also called [177Lu]-DOTA-anti-EGFRvIII; humanized variant of anti-EGFRvIII antibody 4E11
# B2: Conjugate B ([177Lu]-Compound C-anti-EGFRvIII conjugate prepared from EGFRvIII antibody hH3-hL1) (antibody, V domains shown)
# VH: QVQLQESGPGLVKPSQTLSLTCTVSGYSITSDYAWNWIRQPPGKGLEWMGYIGYNGRTSYNPSLKSRITISRDTSKNQFSLKLSSVTAADTAVYYCARLGRGFAYWGQGTLVTVSS
# VL: DIQMTQSPSSLSASVGDRVTITCHASQGINSNIGWYQQKPGKAPKLLIYHGTNLEDGVPSRFSGSGSGTDYTLTISSLQPEDFATYYCVQYAQFPYTFGQGTKLEIKR
# modifications: [177Lu]-Compound C (DOTA chelate with PEG3 linker) conjugated to the antibody; attachment residues not stated; typical chelate to antibody ratios (CARs) of 3-4
# notes: as for B1
# Tests used:
# [1] = biological target: T1, EGFRvIII (epidermal growth factor receptor variant III) over-expressed on the U87-EGFRvIII glioblastoma cell … (human, UniProt P00533 298-623); assay: radioligand saturation binding on U87-EGFRvIII cells, 2 h on ice, gamma counting, one-site non-linear fit
# T1 construct: The assay used cells over-expressing EGFRvIII (whole receptor on cells); EGFRvIII is its in-frame deletion of exons 2-7; also called de2-7EGFR; ΔEGFR
# Protocol: (§1) 1. Cell lysate buffer was prepared using PBS with 1% Triton X-100 [0448] 2. Cell binding buffer was prepared using PBS with 0.5% BSA
# (§2) This study followed the procedures described below: [0450] 1. Cell preparation: [0451] a. Harvest attached cells: recover sufficient, U87-EGFRvIII cells from T225 flasks using trypsin/EDTA and transfer to a 50 ml culture tube. Dispense a 50 μl sample of resuspended cells into an Eppendorf micro-tube and dilute with 50 μl of trypan blue. Fill a hemocytometer (10 μl) chamber and count the number of cells present. [0452] i. Count cells in four quadrants of the counting area. [0453] ii. Calculate cells/mL: count/4 quadrants×dilution factor×10⁴=cells/mL. [0454] b. Resuspend cells in medium to a final concentration of 3×10⁵ cells/ml. [0455] c. Plate 3×10⁵/1 mL U87-EGFRvIII into designated well of the 24-well plates and gently tap to evenly distribute cells (total 6 plates prepared-4 U87-EGFRvIII, 2 blanks) [0456] d. Incubate plates overnight at 37° C. and 5% CO₂. [0457] 2. Binding assay: [0458] Blocking agent was prepared as follows: 4500 μl as concentration of 4 μM; Final concentration of blocker 2 μM. [0459] For Conjugate A [0460] stock=7.58 mg/mL [0461] mg/ml=52.64 μM, add 342 μl [0462] Binding buffer: 4158 μl [0463] For Conjugate B [0464] stock=6.7 mg/mL [0465] mg/ml=46.53 μM, add 387 μl [0466] Binding buffer: 4113 μl [0467] a. Remove medium from two plates [0468] b. […]
# [2] = biological target: T1, EGFRvIII (epidermal growth factor …); assay: saturation binding of the 177Lu-labelled conjugate on U87-EGFRvIII cells, 2 h on ice, gamma counting; specific binding curve
# Protocol: as §1, §2
binder,measurement,setting,value
B1,Kd,[1],6.78 nM
B2,Kd,[1],2.75 nM
same,EC50 (read off the curve),[2],~3 nM
